# Results from patent US20140274782A1, “AFFINITY REAGENTS AND METHODS FOR DETECTION, PURIFICATION, AND PROTEOMIC ANALYSIS OF METHYLATED PROTEINS” (The Board of Trustees of the Leland Stanford Junior …, priority 2013, published 2014).
# T1: G9a and GLP (Homo sapiens, UniProt Q96KQ7+Q9H9B1)
# T1 sequence (Q96KQ7 2-1210 limits assumed): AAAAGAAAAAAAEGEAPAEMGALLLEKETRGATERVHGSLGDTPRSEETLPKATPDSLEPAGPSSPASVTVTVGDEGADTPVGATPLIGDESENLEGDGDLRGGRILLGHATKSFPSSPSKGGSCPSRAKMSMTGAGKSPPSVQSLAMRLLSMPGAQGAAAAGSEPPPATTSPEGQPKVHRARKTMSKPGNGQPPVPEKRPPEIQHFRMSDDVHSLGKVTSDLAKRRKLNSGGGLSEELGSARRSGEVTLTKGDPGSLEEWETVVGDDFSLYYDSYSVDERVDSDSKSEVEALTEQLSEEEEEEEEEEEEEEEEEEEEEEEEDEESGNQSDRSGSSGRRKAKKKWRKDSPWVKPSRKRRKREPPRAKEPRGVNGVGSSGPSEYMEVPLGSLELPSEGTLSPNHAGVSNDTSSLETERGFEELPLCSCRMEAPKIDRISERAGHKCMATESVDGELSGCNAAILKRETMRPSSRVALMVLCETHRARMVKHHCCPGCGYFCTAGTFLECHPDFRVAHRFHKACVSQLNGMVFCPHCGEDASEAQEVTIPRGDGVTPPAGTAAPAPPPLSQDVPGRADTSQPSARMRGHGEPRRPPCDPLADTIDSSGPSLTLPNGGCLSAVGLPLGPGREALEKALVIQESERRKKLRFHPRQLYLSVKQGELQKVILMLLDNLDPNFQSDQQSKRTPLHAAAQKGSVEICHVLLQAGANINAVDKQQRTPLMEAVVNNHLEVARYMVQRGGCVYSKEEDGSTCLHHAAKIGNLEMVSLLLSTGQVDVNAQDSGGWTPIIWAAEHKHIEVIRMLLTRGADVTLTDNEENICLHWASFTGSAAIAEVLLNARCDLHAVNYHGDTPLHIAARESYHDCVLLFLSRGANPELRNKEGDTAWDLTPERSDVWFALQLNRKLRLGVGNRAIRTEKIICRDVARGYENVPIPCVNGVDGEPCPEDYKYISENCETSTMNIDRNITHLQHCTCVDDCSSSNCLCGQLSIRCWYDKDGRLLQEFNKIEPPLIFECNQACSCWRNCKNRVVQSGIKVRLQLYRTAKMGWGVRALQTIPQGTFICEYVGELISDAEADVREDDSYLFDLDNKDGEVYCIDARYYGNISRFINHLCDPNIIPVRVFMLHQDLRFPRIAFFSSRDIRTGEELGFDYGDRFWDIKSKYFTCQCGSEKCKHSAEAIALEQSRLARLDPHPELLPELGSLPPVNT
# T1 sequence (Q9H9B1 2-1298 limits assumed): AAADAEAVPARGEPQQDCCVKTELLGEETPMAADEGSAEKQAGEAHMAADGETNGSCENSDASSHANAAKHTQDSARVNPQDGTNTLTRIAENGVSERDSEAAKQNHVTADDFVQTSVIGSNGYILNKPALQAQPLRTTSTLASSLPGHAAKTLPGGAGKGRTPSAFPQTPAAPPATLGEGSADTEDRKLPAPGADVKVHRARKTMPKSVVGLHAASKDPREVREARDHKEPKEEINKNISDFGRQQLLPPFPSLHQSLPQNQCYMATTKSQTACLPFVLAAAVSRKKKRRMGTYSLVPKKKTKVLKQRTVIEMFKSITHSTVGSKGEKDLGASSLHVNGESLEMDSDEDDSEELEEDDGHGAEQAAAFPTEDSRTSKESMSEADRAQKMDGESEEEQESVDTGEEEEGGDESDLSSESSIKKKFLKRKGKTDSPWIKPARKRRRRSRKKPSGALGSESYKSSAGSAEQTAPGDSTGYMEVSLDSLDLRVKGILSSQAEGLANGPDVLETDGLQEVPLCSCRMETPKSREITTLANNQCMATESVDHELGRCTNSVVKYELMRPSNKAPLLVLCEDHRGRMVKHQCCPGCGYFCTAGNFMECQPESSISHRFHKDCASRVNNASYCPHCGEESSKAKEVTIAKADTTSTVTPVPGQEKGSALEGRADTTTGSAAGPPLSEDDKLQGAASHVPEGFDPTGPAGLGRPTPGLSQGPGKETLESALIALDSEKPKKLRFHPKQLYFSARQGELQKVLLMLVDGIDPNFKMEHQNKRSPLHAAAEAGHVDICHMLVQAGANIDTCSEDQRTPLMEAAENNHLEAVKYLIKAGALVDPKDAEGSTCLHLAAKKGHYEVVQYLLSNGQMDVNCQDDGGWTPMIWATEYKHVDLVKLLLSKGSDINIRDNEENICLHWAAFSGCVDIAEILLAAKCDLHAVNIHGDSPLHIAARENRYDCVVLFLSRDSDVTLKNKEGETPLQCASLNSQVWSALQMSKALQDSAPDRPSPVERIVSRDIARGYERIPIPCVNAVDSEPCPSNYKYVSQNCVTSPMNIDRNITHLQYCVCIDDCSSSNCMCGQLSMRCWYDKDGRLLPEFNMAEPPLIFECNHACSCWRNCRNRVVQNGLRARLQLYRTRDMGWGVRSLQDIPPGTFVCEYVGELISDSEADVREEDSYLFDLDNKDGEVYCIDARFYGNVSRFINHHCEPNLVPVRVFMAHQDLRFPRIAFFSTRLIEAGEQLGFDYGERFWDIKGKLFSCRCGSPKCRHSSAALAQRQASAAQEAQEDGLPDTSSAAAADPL
# B1: DDX3X (protein, UniProt O00571 2-662, looked up)
# ATP-dependent RNA helicase …: SHVAVENALGLDQQFAGLDLNSSDNQSGGSTASKGRYIPPHLRNREATKGFYDKDSSGWSSSKDKDAYSSFGSRSDSRGKSSFFSDRGSGSRGRFDDRGRSDYDGIGSRGDRSGFGKFERGGNSRWCDKSDEDDWSKPLPPSERLEQELFSGGNTGINFEKYDDIPVEATGNNCPPHIESFSDVEMGEIIMGNIELTRYTRPTPVQKHAIPIIKEKRDLMACAQTGSGKTAAFLLPILSQIYSDGPGEALRAMKENGRYGRRKQYPISLVLAPTRELAVQIYEEARKFSYRSRVRPCVVYGGADIGQQIRDLERGCHLLVATPGRLVDMMERGKIGLDFCKYLVLDEADRMLDMGFEPQIRRIVEQDTMPPKGVRHTMMFSATFPKEIQMLARDFLDEYIFLAVGRVGSTSENITQKVVWVEESDKRSFLLDLLNATGKDSLTLVFVETKKGADSLEDFLYHEGYACTSIHGDRSQRDREEALHQFRSGKSPILVATAVAARGLDISNVKHVINFDLPSDIEEYVHRIGRTGRVGNLGLATSFFNERNINITKDLLDLLVEAKQEVPSWLENMAYEHHYKGSSRGRSKSSRFSGGFGARDYRQSSGASSSSFSSSRASSSRSGGGGHGSSRGFGGGGYGGFYNSDGYGGNYNSQGVDWWGN
# B2: DHX15 (protein, UniProt O43143 1-795, looked up)
# ATP-dependent RNA helicase …: MSKRHRLDLGEDYPSGKKRAGTDGKDRDRDRDREDRSKDRDRERDRGDREREREKEKEKELRASTNAMLISAGLPPLKASHSAHSTHSAHSTHSTHSAHSTHAGHAGHTSLPQCINPFTNLPHTPRYYDILKKRLQLPVWEYKDRFTDILVRHQSFVLVGETGSGKTTQIPQWCVEYMRSLPGPKRGVACTQPRRVAAMSVAQRVADEMDVMLGQEVGYSIRFEDCSSAKTILKYMTDGMLLREAMNDPLLERYGVIILDEAHERTLATDILMGVLKEVVRQRSDLKVIVMSATLDAGKFQIYFDNCPLLTIPGRTHPVEIFYTPEPERDYLEAAIRTVIQIHMCEEEEGDLLLFLTGQEEIDEACKRIKREVDDLGPEVGDIKIIPLYSTLPPQQQQRIFEPPPPKKQNGAIGRKVVVSTNIAETSLTIDGVVFVIDPGFAKQKVYNPRIRVESLLVTAISKASAQQRAGRAGRTRPGKCFRLYTEKAYKTEMQDNTYPEILRSNLGSVVLQLKKLGIDDLVHFDFMDPPAPETLMRALELLNYLAALNDDGDLTELGSMMAEFPLDPQLAKMVIASCDYNCSNEVLSITAMLSVPQCFVRPTEAKKAADEAKMRFAHIDGDHLTLLNVYHAFKQNHESVQWCYDNFINYRSLMSADNVRQQLSRIMDRFNLPRRSTDFTSRDYYINIRKALVTGYFMQVAHLERTGHYLTVKDNQVVQLHPSTVLDHKPEWVLYNEFVLTTKNYIRTCTDIKPEWLVKIAPQYYDMSNFPQCEAKRQLDRIIAKLQSKEYSQY
# B3: KIF2A (protein, UniProt O00139 1-706, looked up)
# Kinesin-like protein KIF2A: MATANFGKIQIGIYVEIKRSDGRIHQAMVTSLNEDNESVTVEWIENGDTKGKEIDLESIFSLNPDLVPDEEIEPSPETPPPPASSAKVNKIVKNRRTVASIKNDPPSRDNRVVGSARARPSQFPEQSSSAQQNGSVSDISPVQAAKKEFGPPSRRKSNCVKEVEKLQEKREKRRLQQQELREKRAQDVDATNPNYEIMCMIRDFRGSLDYRPLTTADPIDEHRICVCVRKRPLNKKETQMKDLDVITIPSKDVVMVHEPKQKVDLTRYLENQTFRFDYAFDDSAPNEMVYRFTARPLVETIFERGMATCFAYGQTGSGKTHTMGGDFSGKNQDCSKGIYALAARDVFLMLKKPNYKKLELQVYATFFEIYSGKVFDLLNRKTKLRVLEDGKQQVQVVGLQEREVKCVEDVLKLIDIGNSCRTSGQTSANAHSSRSHAVFQIILRRKGKLHGKFSLIDLAGNERGADTSSADRQTRLEGAEINKSLLALKECIRALGRNKPHTPFRASKLTQVLRDSFIGENSRTCMIATISPGMASCENTLNTLRYANRVKELTVDPTAAGDVRPIMHHPPNQIDDLETQWGVGSSPQRDDLKLLCEQNEEEVSPQLFTFHEAVSQMVEMEEQVVEDHRAVFQESIRWLEDEKALLEMTEEVDYDVDSYATQLEAILEQKIDILTELRDKVKSFRAALQEEEQASKQINPKRPRAL
# B4: HNRPDL (protein, UniProt O14979 1-420, looked up)
# Heterogeneous nuclear …: MEVPPRLSHVPPPLFPSAPATLASRSLSHWRPRPPRQLAPLLPSLAPSSARQGARRAQRHVTAQQPSRLAGGAAIKGGRRRRPDLFRRHFKSSSIQRSAAAAAATRTARQHPPADSSVTMEDMNEYSNIEEFAEGSKINASKNQQDDGKMFIGGLSWDTSKKDLTEYLSRFGEVVDCTIKTDPVTGRSRGFGFVLFKDAASVDKVLELKEHKLDGKLIDPKRAKALKGKEPPKKVFVGGLSPDTSEEQIKEYFGAFGEIENIELPMDTKTNERRGFCFITYTDEEPVKKLLESRYHQIGSGKCEIKVAQPKEVYRQQQQQQKGGRGAAAGGRGGTRGRGRGQGQNWNQGFNNYYDQGYGNYNSAYGGDQNYSGYGGYDYTGYNYGNYGYGQGYADYSGQQSTYGKASRGGGNHQNNYQPY
# Tested on: 3×MBT domain of L3MBTL1
# Test: Triple SILAC pull-down, 3xMBT/3xMBTD355N ratio (cytoplasmic, nuclear and chromatin fractions of 293T cells);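 further: proteins quantified with MaxQuant, requiring at least two unique peptides and quantification in both label directions, normalized to the mean of proteins from a digested loading control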
# Format: binding, human
# Settings: SILAC ratio, pull-down 3xMBT vs 3xMBTD355N; experiment with UNC0638 in heavy SILAC media
row,Molecule,3xMBT/D355N UNC Heavy [log base 2]
1,B1,2.64
2,B2,2.98
3,B3,2.05
4,B4,2.81

# Same assay, conditions: SILAC ratio, pull-down 3xMBT vs 3xMBTD355N; experiment with UNC0638 in light SILAC media
row,Molecule,3xMBT/D355N UNC Light [log base 2]
1,B1,2.58
2,B2,2.54
3,B3,2.33
4,B4,3.02

# Biological target: T1, G9a and GLP
# Test: Triple SILAC pull-down after UNC0638 treatment of 293T cells, DMSO/UNC0638 ratio of protein captured by 3×MBT;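 further: mass spectrometry (Q-Exactive) SILAC quantitation, DMSO/UNC0638 ratio computed after subtracting 3×MBTD355N mutant pull-down background, only proteins with at least twofold 3×MBT over mutant signal considered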
# Format: cell-based
# Set-up: cells were treated for 24 hours with UNC0638 at 2.5 μM or DMSO vehicle control; endogenous in cells; host or cells: HEK 293T
# Settings: SILAC ratio DMSO/UNC0638 of protein pulled down with 3xMBT; UNC0638 in heavy SILAC media
row,Relative to UNC0638 UNC Heavy [log base 2],Molecule
1,0.25,B1
2,0.13,B2
3,0.23,B3
4,0.16,B4

# Same assay, conditions: SILAC ratio DMSO/UNC0638 of protein pulled down with 3xMBT; UNC0638 in light SILAC media
row,Relative to UNC0638 UNC Light [log base 2],Molecule
1,0.14,B1
2,0.27,B2
3,0.15,B3
4,0.24,B4

# Same assay, conditions: average of UNC Light and UNC Heavy experiments
row,Relative to UNC0638 Average [log base 2],Molecule
1,0.20,B1
2,0.20,B2
3,0.19,B3
4,0.20,B4
